# Laboratory results reported in patent US20250221923A1, “BOOSTING OSMOTIC BLOOD-ORGAN BARRIER OPENING FOR IMPROVED DELIVERY OF THERAPEUTICS TO ORGANS” (priority 2024, published 2025).
# Tests used:
# brain = details: mouse, in vivo
# Excerpt: In experiment 2, IA injections of antibodies suspended in 0.9% NaCl were comparted to IA injections of antibodies suspended in serum. PET imaging and post-mortem antibody biodistribution were used as outcome measures.
# brain hemispheres [1] = test system: brain hemispheres; set-up: species or system mice; details: mouse
# Experimental: A catheter was placed into the right internal carotid artery (ICA) in 14 male C57BL6 mice for intra-arterial (IA) injections. […] To confirm OBBBO, Gadolinium-enhanced T1 MRI was conducted, and safety was confirmed through subsequent serial MRI over 1-2 weeks.
# brain hemispheres [2] = details: mouse, in vivo
# Experimental: Then, monoclonal antibody (mAb) bevacizumab was conjugated to deferoxamine (DFO) and the conjugate was radiolabeled with zirconium-89 (^89Zr). OBBBO was performed using 25% mannitol or 4% NaCl in 25% mannitol, followed by intraarterial (IA) injection of the radiolabeled mAb and positron-emission tomography (PET) imaging to assess the distribution of the mAb. The percentages of injected dose per cubic centimeter of tissue (% ID/g) and standardized uptake values (SUV) were calculated for selected organs and regions.
# Approximately 7.5 MBq (˜202 μCi) of ^89Zr-BVDFO reconstituted in 0.2 mL of saline was infused intraarterially at a speed of 0.15 mL/min and each animal was transferred to the PET/CT scanner. […] Regions of interest (ROIs), including right and left brain hemispheres, heart, lungs, and liver, were demarcated in the axial plane, and standardized uptake values (SUV) were calculated using the Fiji ImageJ PET/CT plugin.
# Linear mixed modeling with restricted maximum likelihood (REML) method was performed using ‘Imer’ package, with % ID/g or SUVmean or SUVmax as a dependent variable, organs and BBBO type as fixed effects and mouse ID as a random effect. Estimated marginal means were calculated using ‘emmeans’ package for organ and BBBO interactions, and p-values for pairwise comparisons were extracted.
# [3] = test system: brain hemispheres and organs; assay: Ex vivo biodistribution of ^89Zr-BVDFO after OBBBO (Example 1); set-up: species or system mice; details: mouse
# Experimental: On completion of PET/CT after infusion of ^89Zr-BVDFO, the mice were euthanized and left and right brain hemispheres, heart, lungs, liver, spleen, kidneys, and blood were harvested, weighed using Mettler Toledo […] Balance and radioactivity of each was measured using CRC®[…] Dose Calibrator and Well Counter, Mirion Technologies. To calculate the percentage injected dose per […] of tissue (% ID/g), first, the radioactivity present in the syringe after injection was measured and subtracted from initial measurement before injection to calculate the total injected dose. Then, the percentage of each organ's radioactivity measurement relative to the total injected dose was calculated and divided by the weight of the organ. The biodistribution data shown are mean % ID/g+SE.
# head and neck region = test system: head and neck region; set-up: species or system mice; details: mouse, in vivo
# Experimental: Radiolabeled bevacizumab (Zr 89-bevacizumab) was administered via both IA and IV routes. […] Ex vivo measurements of drug biodistribution across various organs further corroborated these findings, quantifying radioactivity in specific tissues such as the skin, salivary glands, tongue, and jaw muscle (FIG. 7e). The method comprised pretreatment with composition comprising a hyperosmotic agent, stopping the pretreatment administration, and then administrating the radiolabeled bevacizumab. Without being bound by theory, it is believed that to enhance drug delivery, the pretreatment with the hyperosmotic agent would extract water from the tissue (local dehydration), followed by rapid rehydration upon cessation of the hyperosmotic infusion. This process was expected to improve the transition of the intra-arterially administered drug from the vascular compartment to the parenchymal tissues, thereby increasing drug accumulation in the targeted areas.
substance,measurement,setting,value
^89Zr-BVDFO: monoclonal antibody bevacizumab (Avastin) conjugated to deferoxamine (DFO) and radiolabeled with zirconium-89,"CNS penetration, antibodies suspended in 0.9% NaCl vs suspended in serum",brain,much higher
same,"antibody penetration to the brain, IA vs IV",brain; iv,much higher
same,"ex vivo biodistribution, accumulation in the ipsilateral hemisphere",brain hemispheres [1],confirmed by ex vivo biodistribution
same,"standardized uptake values (SUV), accumulation in the ipsilateral hemisphere",brain hemispheres [1]; in vivo,substantial accumulation
same,accumulation of radioactivity in the ipsilateral hemisphere,brain hemispheres [2],substantial accumulation
same,"uptake in the blood, lungs, spleen, liver, and kidneys",[3],high uptake
same,"antibody uptake in the head and neck region, IA compared to IV",head and neck region,significantly higher
